This is an account of results in patent US5989804, “E6 binding proteins” (New England Medical Center Hospitals, Inc., dated 1999).

This assay has as its target in vitro-translated 35S-labeled HPV16 E6 (human papillomavirus type 16, UniProt P03126, 35S-labeled cysteine or methionine). The assay can be described thus: GST pull-down of 35S-labeled in vitro-translated HPV-16 E6.

Turning to ILVEKDRFVNDYDKDNDGRLDPQELLPWVVPNNQGI (other) [GSTSD7EF5], the binding result was “no binding”.
